According to paper PMC3608606, “Arabidopsis DEAD-Box RNA Helicase UAP56 Interacts with Both RNA and DNA as well as with mRNA Export Factors”:

T1: GST-UAP56 (Arabidopsis thaliana (Mouse-ear cress), UniProt Q9LFN6)
T1 chain: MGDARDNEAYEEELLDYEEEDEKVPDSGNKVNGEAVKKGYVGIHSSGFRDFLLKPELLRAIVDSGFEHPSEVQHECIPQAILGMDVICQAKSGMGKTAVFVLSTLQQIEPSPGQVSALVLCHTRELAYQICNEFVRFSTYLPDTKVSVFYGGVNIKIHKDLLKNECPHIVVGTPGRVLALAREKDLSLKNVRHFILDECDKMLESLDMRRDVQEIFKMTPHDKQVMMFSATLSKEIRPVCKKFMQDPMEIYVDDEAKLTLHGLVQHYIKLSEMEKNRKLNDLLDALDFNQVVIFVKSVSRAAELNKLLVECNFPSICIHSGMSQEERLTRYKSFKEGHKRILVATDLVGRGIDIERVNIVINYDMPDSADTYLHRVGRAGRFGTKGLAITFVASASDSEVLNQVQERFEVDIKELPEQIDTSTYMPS

T2: Df31 (Decondensation Factor 31) (Drosophila, UniProt O16043 1-183)
T2 sequence: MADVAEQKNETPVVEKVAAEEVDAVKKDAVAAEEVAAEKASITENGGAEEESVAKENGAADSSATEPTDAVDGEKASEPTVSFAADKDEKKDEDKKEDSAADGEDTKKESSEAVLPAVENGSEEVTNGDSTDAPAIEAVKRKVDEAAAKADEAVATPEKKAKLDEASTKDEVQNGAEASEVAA

T3: UAP56 (Arabidopsis thaliana, UniProt Q56XG6 1-427)
T3 sequence: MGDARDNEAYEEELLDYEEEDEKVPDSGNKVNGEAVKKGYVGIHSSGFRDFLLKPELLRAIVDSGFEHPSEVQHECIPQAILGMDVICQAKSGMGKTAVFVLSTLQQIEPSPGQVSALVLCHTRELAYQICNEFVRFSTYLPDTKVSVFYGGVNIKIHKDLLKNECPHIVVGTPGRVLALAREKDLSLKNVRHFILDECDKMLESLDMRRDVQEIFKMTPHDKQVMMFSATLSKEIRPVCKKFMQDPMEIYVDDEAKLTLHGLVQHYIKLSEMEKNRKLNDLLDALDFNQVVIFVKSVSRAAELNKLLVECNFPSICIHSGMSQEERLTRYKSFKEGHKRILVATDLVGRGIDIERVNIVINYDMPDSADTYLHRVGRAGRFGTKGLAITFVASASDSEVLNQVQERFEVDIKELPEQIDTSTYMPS


Legend:
GST-UAP56 = molecular target: T1, GST-UAP56; assay: GST pull-down; ATP present
[1] = molecular target: T2, Df31 (Decondensation Factor 31); assay: MST; up to 411 uM protein; MST: 50 nM labelled oligonucleotide in EMSA buffer (composition cited, ref 44), 28 C, Hill fit; EMSA: 32P probe, PAGE, same cited protocol; salt and pH not given; conditions: protein: recombinant; label: fluorescent; blunt
UAP56 [2] = molecular target: T3, UAP56; assay: MST; MST: 50 nM labelled oligonucleotide in EMSA buffer (composition cited, ref 44), 28 C, Hill fit; EMSA: 32P probe, PAGE, same cited protocol; salt and pH not given; conditions: protein: recombinant; tags: 6xHis (pQE9); label: fluorescent; blunt
UAP56 [3] = molecular target: T3, UAP56; assay: EMSA; 0.25-5 uM protein; two complexes; less efficient than RNA; MST: 50 nM labelled oligonucleotide in EMSA buffer (composition cited, ref 44), 28 C, Hill fit; EMSA: 32P probe, PAGE, same cited protocol; salt and pH not given; conditions: protein: recombinant; tags: 6xHis (pQE9); label: 32P; blunt
UAP56 [4] = molecular target: T3, UAP56; assay: EMSA; 0.25-5 uM protein; single complex; MST: 50 nM labelled oligonucleotide in EMSA buffer (composition cited, ref 44), 28 C, Hill fit; EMSA: 32P probe, PAGE, same cited protocol; salt and pH not given; conditions: protein: recombinant; tags: 6xHis (pQE9); label: 32P; blunt

| binding result (GST-UAP56) | Binder | Kd (UAP56 [2]) [µM] | also measured |
| --- | --- | --- | --- |
| no binding | 6xHis-HMGB2 (protein) MKGAKSKTETRSSKLSVTKKPAKGAGRGKAAAKDPNKPKRPASAFFVFMEDFRETFKKENPKNKSVATVGKAAGDKWKSLSDSEKAPYVAKAEKRKVEYEKNIKAYNKKLEEGPKEDEESDKSVSEVNDEDDAEDGSEEEEDDD | – | – |
| – | D29ds (dsDNA) DNA 1: CCTCCTTTTTTCTTTTTTTTTTTTTTTCT DNA 2: AGAAAAAAAAAAAAAAAGAAAAAAGGAGG | 6.5 ± 0.75 | binding result [1]: no binding |
| binds | 6xHis-MOS11 (protein) MATNGEKVTATVVNGGGLSTGENPKKIVDLNTTELDRTDDILDGEVKGFSDSGEKKEETDSNGIGSTAGVDSGDISPVDDIQKKIRRAERFGVSVKLTEEEKRNSRAERFGTVAAAVVNGSEGTKKAEELKRKARADRFGVPSATSTTDKTEEEAKKKARLARFGKETKVDSAEENKRKARALRFSKEASADASSDLPEKQIIGKEAAVSGSAA | – | – |
| – | D25ds (dsDNA) DNA 1: AAAACAAAATAGCACCGTAAAGCAC DNA 2: GTGCTTTACGGTGCTATTTTGTTTT | – | binding result (UAP56 [3]): binds |
| – | R29ds (dsRNA) RNA 1: CCUCCUUUUUUCUUUUUUUUUUUUUUUCU RNA 2: AGAAAAAAAAAAAAAAAGAAAAAAGGAGG | 51.5 ± 5.3 | – |
| – | R25ds (dsRNA) RNA 1: AAAACAAAAUAGCACCGUAAAGCAC RNA 2: GUGCUUUACGGUGCUAUUUUGUUUU | – | binding result (UAP56 [4]): binds |
